Test results from US7329737 (DYAX, dated 2008).

Experiments:
[1] = molecular target: T1, hK1 (human tissue kallikrein 1), recombinant (human, UniProt P06870 25-262); test: SPR
T1 construct: Expressed in P. pastoris from KLK1 cDNA and purified; enzymatically active; also called KLK1; Recombinant (Pichia) Kallikrein

[2] = molecular target: T1, hK1 (human tissue kallikrein 1), …; test: SPR, biotinylated hK1 on streptavidin chip; Fab 50 nM after DX-2300 50 nM (competitor DX-2300)
From the text: Epitope grouping by SPR. Biotinylated hK1 was captured on a streptavidin coated chip to a final ligand density of 88 RU. […] The signal at the end of the injection of the Fab alone is R2.

[3] = molecular target: T1, hK1 (human tissue kallikrein 1), …; test: cell-based or functional assay
Human elastase = molecular target: T2, Human elastase (human, UniProt P08246 30-247); test: protease inhibition assay, Fab up to 1 µM;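 also: protease and Fab preincubated 1 h at room temperature, then substrate added, fluorescence plate-reader monitoring of substrate hydrolysis rate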
T2 construct: also called Human Neutrophil Elastase
T2 sequence (looked up): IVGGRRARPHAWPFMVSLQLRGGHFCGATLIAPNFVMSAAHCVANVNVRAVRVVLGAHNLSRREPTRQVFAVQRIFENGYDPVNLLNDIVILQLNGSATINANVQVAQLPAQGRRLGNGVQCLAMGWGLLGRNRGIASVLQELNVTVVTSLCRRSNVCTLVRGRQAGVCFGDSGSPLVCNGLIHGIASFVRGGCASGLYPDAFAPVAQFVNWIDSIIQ
Method: (§1) Selected antibodies were tested for their ability to inhibit other proteases.
(§2) Assays were performed in black, 96 well, round bottomed microplates in a total volume of 100 μL. Enzyme and Fab inhibitor were incubated in the dark at room temperature for 1 hour prior to the addition of the indicated amount of substrate. The rate of enzymatic substrate hydrolysis was then monitored using the Spectramax Gemini XS fluorescence plate reader using the wavelengths listed in Table 3.

[4] = molecular target: Human activated protein kinase C (human); test: protease inhibition assay, Fab up to 1 µM;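 also: protease and Fab preincubated 1 h at room temperature, then substrate added, fluorescence plate-reader monitoring of substrate hydrolysis rate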
Method: as §1, §2

Human urokinase = Human urokinase (human, UniProt P00749 21-431, limits assumed); test: protease inhibition assay, Fab up to 1 µM;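 also: protease and Fab preincubated 1 h at room temperature, then substrate added, fluorescence plate-reader monitoring of substrate hydrolysis rate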
Method: as §1, §2

[5] = molecular target: Human Tissue Kallikrein 2 (hK2) (human, UniProt P20151 25-261); test: protease inhibition assay, Fab up to 1 µM;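 also: protease and Fab preincubated 1 h at room temperature, then substrate added, fluorescence plate-reader monitoring of substrate hydrolysis rate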
Method: as §1, §2

Human thrombin = Human thrombin (human, UniProt P00734 328-622); test: protease inhibition assay, Fab up to 1 µM
Method: as §1, §2

[6] = molecular target: T3, Human Tissue Kallikrein 8 (hK8) (human, UniProt O60259 33-260); test: protease inhibition assay, Fab up to 1 µM
T3 sequence (looked up): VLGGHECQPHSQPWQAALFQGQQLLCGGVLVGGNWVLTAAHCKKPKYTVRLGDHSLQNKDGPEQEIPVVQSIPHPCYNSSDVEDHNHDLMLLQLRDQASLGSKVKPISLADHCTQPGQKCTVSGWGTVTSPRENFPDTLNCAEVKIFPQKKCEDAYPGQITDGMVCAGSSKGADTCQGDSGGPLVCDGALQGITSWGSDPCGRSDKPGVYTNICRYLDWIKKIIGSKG
Method: as §1, §2

[7] = molecular target: Human Tissue Kallikrein 5 (hK5) (human, UniProt Q9Y337 67-293, limits assumed); test: protease inhibition assay, Fab up to 1 µM
Method: as §1, §2

Human plasma kallikrein = Human plasma kallikrein (human, UniProt P03952 20-638); test: protease inhibition assay, Fab up to 1 µM
Method: as §1, §2

[8] = molecular target: Human Tissue Kallikrein 4 (hK4) (human, UniProt Q9Y5K2 31-254); test: protease inhibition assay, Fab up to 1 µM
Method: as §1, §2

Human trypsin = molecular target: T4, Human trypsin (human, UniProt P07477 24-247); test: protease inhibition assay, Fab up to 1 µM
T4 construct: also called Human Pancreatic Trypsin
Method: as §1, §2

Human chymotrypsin = Human chymotrypsin (human, UniProt P17538 19-263); test: protease inhibition assay, Fab up to 1 µM
Method: as §1, §2

[9] = molecular target: Human Tissue Kallikrein 3 (hK3, PSA) (human, UniProt P07288 25-261); test: protease inhibition assay, Fab up to 1 µM
Method: as §1, §2

Human plasmin = Human plasmin (human, UniProt P00747 97-810); test: protease inhibition assay, Fab up to 1 µM
Method: as §1, §2

[10] = molecular target: T1, hK1 (human tissue kallikrein 1), …; test: enzyme inhibition, tight-binding analysis, competitive; Fab

Chain of Human plasmin (P00747 97-810 limits assumed): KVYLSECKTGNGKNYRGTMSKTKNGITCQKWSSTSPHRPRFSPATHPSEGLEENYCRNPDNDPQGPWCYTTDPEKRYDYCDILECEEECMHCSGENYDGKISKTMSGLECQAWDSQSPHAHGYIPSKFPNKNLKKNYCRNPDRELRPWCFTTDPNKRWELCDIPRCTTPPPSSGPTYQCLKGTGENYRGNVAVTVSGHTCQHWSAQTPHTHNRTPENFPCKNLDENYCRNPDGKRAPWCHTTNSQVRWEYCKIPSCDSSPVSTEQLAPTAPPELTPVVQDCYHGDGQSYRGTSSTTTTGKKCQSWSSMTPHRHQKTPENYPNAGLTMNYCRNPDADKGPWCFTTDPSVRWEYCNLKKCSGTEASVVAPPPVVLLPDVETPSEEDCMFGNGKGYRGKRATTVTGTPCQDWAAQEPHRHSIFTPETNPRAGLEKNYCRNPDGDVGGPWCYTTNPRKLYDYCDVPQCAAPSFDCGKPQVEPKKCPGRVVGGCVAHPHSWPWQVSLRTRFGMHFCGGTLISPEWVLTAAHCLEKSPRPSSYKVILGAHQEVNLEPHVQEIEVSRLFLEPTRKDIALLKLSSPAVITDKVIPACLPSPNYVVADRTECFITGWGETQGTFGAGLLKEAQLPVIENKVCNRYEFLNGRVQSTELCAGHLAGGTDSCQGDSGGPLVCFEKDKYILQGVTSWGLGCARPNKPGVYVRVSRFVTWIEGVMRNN
Chain of Human Tissue Kallikrein 4 (hK4) (Q9Y5K2 31-254 limits assumed): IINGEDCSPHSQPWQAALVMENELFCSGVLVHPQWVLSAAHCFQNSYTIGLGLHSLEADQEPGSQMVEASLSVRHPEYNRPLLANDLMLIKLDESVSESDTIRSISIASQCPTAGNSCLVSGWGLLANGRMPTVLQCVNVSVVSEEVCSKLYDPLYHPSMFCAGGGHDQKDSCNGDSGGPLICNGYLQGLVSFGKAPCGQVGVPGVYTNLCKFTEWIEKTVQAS
Chain of Human Tissue Kallikrein 2 (hK2) (P20151 25-261 limits assumed): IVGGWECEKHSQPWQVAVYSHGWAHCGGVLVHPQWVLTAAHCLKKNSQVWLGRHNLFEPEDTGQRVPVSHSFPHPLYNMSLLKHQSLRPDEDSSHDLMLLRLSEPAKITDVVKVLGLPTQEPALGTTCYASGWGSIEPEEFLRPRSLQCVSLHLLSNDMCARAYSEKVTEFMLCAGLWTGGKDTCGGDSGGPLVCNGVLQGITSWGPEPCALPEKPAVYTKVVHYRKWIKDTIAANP
Chain of Human activated protein kinase C (human) (P04070 43-197, chain 1 of 2): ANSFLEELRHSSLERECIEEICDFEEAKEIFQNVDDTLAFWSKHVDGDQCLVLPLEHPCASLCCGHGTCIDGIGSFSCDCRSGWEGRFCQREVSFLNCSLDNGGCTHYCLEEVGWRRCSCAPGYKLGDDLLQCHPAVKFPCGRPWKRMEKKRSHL
Chain of Human activated protein kinase C (human) (P04070 212-461, chain 2 of 2): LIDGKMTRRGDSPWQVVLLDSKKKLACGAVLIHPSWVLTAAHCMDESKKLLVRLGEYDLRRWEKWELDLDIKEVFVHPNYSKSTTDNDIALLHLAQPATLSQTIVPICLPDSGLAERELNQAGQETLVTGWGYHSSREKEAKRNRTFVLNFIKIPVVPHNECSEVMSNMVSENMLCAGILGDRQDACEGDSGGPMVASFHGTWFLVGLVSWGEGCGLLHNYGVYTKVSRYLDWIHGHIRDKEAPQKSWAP
Chain of Human Tissue Kallikrein 5 (hK5) (Q9Y337 67-293 limits assumed): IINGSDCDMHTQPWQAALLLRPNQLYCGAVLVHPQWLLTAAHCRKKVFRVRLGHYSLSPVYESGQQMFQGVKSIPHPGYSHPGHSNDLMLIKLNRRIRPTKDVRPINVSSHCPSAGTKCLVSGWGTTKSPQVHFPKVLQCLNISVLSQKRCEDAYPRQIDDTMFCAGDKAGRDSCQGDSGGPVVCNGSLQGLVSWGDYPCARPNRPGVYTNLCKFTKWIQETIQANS
Chain of Human plasma kallikrein (P03952 20-638 limits assumed): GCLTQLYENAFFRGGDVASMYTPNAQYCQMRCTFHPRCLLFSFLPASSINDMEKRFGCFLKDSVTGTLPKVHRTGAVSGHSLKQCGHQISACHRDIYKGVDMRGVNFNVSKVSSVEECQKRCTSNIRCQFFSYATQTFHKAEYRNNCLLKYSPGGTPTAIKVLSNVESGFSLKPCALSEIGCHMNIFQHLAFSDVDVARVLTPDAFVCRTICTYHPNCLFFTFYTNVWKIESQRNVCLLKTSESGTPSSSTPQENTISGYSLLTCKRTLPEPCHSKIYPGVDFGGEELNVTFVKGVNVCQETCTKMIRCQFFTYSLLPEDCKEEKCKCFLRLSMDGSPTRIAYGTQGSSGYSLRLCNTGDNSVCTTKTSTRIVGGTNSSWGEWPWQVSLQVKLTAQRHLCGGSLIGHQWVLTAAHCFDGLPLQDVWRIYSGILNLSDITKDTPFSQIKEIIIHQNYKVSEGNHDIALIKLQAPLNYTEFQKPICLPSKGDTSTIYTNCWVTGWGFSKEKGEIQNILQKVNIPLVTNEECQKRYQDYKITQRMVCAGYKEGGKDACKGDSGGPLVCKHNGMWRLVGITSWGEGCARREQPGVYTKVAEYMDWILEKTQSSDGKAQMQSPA
Chain of Human Tissue Kallikrein 3 (hK3, PSA) (P07288 25-261 limits assumed): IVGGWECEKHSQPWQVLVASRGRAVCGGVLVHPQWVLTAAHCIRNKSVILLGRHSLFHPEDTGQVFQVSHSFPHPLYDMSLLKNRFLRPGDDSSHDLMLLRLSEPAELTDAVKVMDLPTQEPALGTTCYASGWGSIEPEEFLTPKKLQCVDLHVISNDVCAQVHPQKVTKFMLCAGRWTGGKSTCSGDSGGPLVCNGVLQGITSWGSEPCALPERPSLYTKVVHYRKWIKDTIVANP
Chain of Human chymotrypsin (P17538 19-263): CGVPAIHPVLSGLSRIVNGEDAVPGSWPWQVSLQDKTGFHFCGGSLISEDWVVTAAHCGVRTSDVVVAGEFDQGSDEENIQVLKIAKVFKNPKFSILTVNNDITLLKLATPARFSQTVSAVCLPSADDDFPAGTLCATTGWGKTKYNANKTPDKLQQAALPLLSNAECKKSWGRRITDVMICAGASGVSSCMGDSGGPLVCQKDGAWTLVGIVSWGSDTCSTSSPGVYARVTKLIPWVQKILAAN

B1: M0137-E01 (Fab, V domains shown)
VH: EVQLLESGGGLVQPGGSLRLSCAASGFTFSRYSMTWVRQAPGKGLEWVSSIYPSGGKTTYADSVKGRFTISRDNSKNTLYLQMNSLRAEDTAVYYCASMVAPYYYDSSGYPPAEYFQHWGQGTLVTVSS
VL: AQSELTQPPSASGTPGQRVTISCSGTNSNIGSNSVFWYQQLSGTAAPKVLILRNSQRPSGVSDRFSGSKSGTSASLAISGLRSEDEADYYCATWDDSLRSPVFGGGTKLTVLG
notes: also called M137-E01
- Kd [1]: 1.29 nM
- koff [1]: 0.000158 s⁻¹
- kon [1]: 123000 M⁻¹ s⁻¹
- Fab Signal following DX-2300 (R1) [2]: 20.8
- IC50 (nM), inhibition of hK1 hydrolysis of Pro-Phe-Arg-AMC [3]: 0.4 nM
- Ki (Human elastase): > 1000 nM
- Ki [4]: > 1000 nM
- Ki (Human urokinase): > 1000 nM
- Ki [5]: > 1000 nM
- Ki (Human thrombin): > 1000 nM
- Ki [6]: > 1000 nM
- Ki [7]: > 1000 nM
- Ki (Human plasma kallikrein): > 1000 nM
- Ki [8]: > 1000 nM
- Ki (Human trypsin): > 1000 nM
- Ki (Human chymotrypsin): > 1000 nM
- Ki [9]: > 1000 nM
- Ki (Human plasmin): > 1000 nM
- Ki [10]: 0.9 nM
